This is an account of results in paper PMC8035640.

The target of data set [1] is LchD^GGDEV-His, soluble cytoplasmic fragment of LchD (Lysobacter enzymogenes OH11). The data set is described as follows: MST.
Another data set has as its target T1, PilR-His (Lysobacter enzymogenes OH11, UniProt A0A5P2TY02 1-471).
T1 sequence: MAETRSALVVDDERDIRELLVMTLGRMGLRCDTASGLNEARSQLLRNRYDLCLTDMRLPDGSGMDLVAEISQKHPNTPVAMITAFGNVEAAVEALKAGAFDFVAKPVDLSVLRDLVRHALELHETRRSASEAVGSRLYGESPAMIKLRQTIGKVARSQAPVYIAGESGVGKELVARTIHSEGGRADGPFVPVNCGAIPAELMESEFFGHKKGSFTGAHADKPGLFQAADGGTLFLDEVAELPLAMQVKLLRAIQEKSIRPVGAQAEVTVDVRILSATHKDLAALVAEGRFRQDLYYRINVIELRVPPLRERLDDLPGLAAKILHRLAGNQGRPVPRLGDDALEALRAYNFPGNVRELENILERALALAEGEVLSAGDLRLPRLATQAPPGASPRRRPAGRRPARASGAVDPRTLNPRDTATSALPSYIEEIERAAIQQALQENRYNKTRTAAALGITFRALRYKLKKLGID
In words: EMSA.

B1: Clp-glutathione S-transferase (GST) (natural protein)
chain: MSANPVAPLTALRRTNSPLLPDGATIERFLAHCHRRRYPSRTDVFRPGDPASTLYYVVSGSVSIITEEEDGRELVLGYFGPGEFVGELGLFIESDHREVILRTRSTCELAEIGHERLYDLLLTRLSLDAPKLLYAIGAQISRRLLDTSRKAGRLAFLDVTDRIVRALHDLAKEPEAMSHPQGTQLRVSRQELSRLVGCSREMAGRVLKKLQADGKLHARGKTVVLYGTR
As usually defined, the Kd is the constant that tells how readily two partners part at equilibrium. Lower therefore signals higher affinity. In data set [1], B1 returned a Kd of 490 nM.

B2: PLchD-2b (dsDNA)
DNA 1: CCTGCACCGGAATGCAGCCCCCTTGGGCTATGCTCGGCACAGCAGACTGG
DNA 2: CCAGTCTGCTGTGCCGAGCATAGCCCAAGGGGGCTGCATTCCGGTGCAGG
For the molecule B2, the binding result with PilR-His is listed as “no binding”.

B3: PLchD-2c (dsDNA)
DNA 1: TGACCGGAAGGGGCATGGGGACACCCTGGCGTGGAAGCTGGCGCGGCTGG
DNA 2: CCAGCCGCGCCAGCTTCCACGCCAGGGTGTCCCCATGCCCCTTCCGGTCA
With B3, the binding result with PilR-His is reported as “no binding”.
